Data on one substance can be found in publication doi:10.1101/2020.09.21.306357.

For the test, the target named is ACE2-Fc (soluble human ACE2 fused to human IgG Fc) (human) (UniProt Q9BYF1). The experiment in a line: BLI. (In BLI a coated tip is dipped into the sample, and binding shifts an interference pattern.)
ACE2-Fc (soluble human ACE2 fused to human IgG Fc) (human), sequence (Q9BYF1 18-738): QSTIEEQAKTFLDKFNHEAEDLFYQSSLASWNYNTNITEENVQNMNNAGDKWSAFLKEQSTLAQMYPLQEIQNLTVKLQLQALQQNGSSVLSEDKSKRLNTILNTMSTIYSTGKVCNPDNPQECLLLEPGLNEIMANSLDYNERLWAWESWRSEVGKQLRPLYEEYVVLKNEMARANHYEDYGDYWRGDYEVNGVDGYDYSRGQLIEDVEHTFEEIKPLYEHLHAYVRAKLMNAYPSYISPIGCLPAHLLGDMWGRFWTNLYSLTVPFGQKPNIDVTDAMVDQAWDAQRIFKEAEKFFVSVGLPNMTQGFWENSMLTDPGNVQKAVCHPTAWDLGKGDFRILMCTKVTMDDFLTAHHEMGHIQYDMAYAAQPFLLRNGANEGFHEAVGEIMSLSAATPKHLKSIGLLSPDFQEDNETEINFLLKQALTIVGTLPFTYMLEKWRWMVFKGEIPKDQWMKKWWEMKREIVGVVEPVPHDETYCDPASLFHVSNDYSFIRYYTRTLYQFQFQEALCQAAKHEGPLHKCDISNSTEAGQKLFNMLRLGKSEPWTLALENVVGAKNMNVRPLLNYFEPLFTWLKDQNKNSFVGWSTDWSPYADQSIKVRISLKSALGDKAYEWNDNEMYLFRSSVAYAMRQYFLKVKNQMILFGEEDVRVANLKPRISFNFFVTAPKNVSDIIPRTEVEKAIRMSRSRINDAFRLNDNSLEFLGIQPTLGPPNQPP

Usually Kd stands for a measure of binding affinity in units of concentration. A high value points to weaker binding. With “SARS-CoV-1 S-Trimer (wild-type SARS-CoV S ectodomain fused to Trimer-Tag) (from UniProt P59594 14-1193) (domain or fragment)”, the Kd worked out at 1.2 nM. This lies in the single-digit nanomolar range.
